B1: Ras GTPase-activating protein 1, residues 281 to 341; numbered along this chain, P20936 (parent)
chain: RRRVRAILPYTKVPDTDEISFLKGDMFIVHNELEDGWMWVTNLRTDEQGLIVEDLVEEVGR
B2: Transcriptional regulator ERG, residues 117 to 197; numbered along this chain, P11308 (parent)
chain: NMTTNERRVIVPADPTLWSTDHVRQWLEWAVKEYGLPDVNILLFQNIDGKELCKMTKDDFQRLTPSYNADILLSHLHYLRE

Variants of: B1
Experiment: abundance fitness (aPCA) (normalised: wild type 0, dead -1); higher = more abundant; growth selection in yeast, the domain comes from the species named
Settings: Homo sapiens

Abundance fitness: each site, then its substitutions
R5: C -0.072, L -0.256, I -0.055, V -0.007, G -0.796, A -0.354, S -0.272, K 0.052, W -0.531, E -0.138, Y -0.331, T -0.21, D -0.86, F -0.398, P -0.919, Q -0.01, H -0.398, N -0.754, M -0.025
R2: K 0.027, F -0.196, W -0.371, Y -0.103, I -0.159, C -0.347, M -0.053, V -0.232, D -0.179, Q -0.172, H -0.183, E 0.007, P -0.189, S -0.164, T -0.128, G -0.241, N -0.099, L -0.187
T11: A -0.05, I -0.055, C -0.028, G -0.416, H -0.129, L -0.169, N -0.026, D 0.016, E -0.108, F -0.184, K -0.13
Y10: H 0.084, G -0.84, K -0.485, S -0.623, R -0.27, N -0.35, F -0.577, V -0.728, Q -0.422, A -0.588, D -1.04, E -0.838, C -0.539, M -0.577, T -0.999
V4: L -0.055, K -0.626, T -0.605, N -0.865, E -0.929, I -0.205, S -0.895, M -0.074, R -0.631, G -0.901, H -0.739, W -0.597, Q -0.848, A -0.462, F -0.082, P -0.903, C -0.465
R3: P -0.51, A -0.292, L -0.09, D -0.514, I -0.073, V -0.1, S -0.136, G -0.383, C -0.212, Q -0.066, W -0.378, M -0.158, F 0.004, T -0.136, H -0.096, N -0.126, K -0.01, Y -0.045
A6: M -0.804, P -1.04, N -0.908, F -0.919, T -0.84, D -0.953, H -0.925, W -0.953, I -0.885, C -0.829, Q -0.915, S -0.258, L -0.896, R -0.908, V -0.899, E -0.819
I7: K 0.037, C -0.231, D -1.01, A -0.63, L -0.066, N -0.292, M -0.167, R -0.055, Y -0.366, T -0.088, G -0.735, S -0.236, E -0.551, H -0.305, Q -0.473
L8: H -0.037, A 0.074, Q -0.052, S -0.03, P -0.99, R -0.059, M 0.044, G -0.012, W -0.194, K -0.129, D -0.149, N -0.102, Y -0.084, E -0.067, F -0.075, V -0.039, C -0.052
P9: I -0.876, W -0.805, S -0.044, Y -0.796, K -0.232, N -0.101, F -0.73, E -0.103, L -0.772, V -0.855, H -0.157, Q -0.091, M -0.308, D 0.049, T -0.076, A -0.026, G -0.059, R -0.311
R1: C -0.065, I 0.072, K 0.058, G -0.098, V -0.016, A -0.129, P -0.283, Q -0.503, W -0.315, L -0.067, D 0.122, T 0.029, F 0.06, M 0.087, Y 0.018, N 0.063

Variants of: B2
Experiment: as above
Settings: Homo sapiens

Abundance fitness: each site, then its substitutions
L72: Q -0.697, T -0.543, R -0.714, S -0.801, V -0.471, W -0.653, Y -0.669
H77: R 0.052, A 0.034, F -0.226, K 0.044, W -0.166, E 0.099, N 0.112, I 0.142, S -0.026, Q -0.098, G 0.194, Y -0.295, T -0.119, M -0.24, V -0.072, D -0.128, L -0.087
L76: E -0.742, V -0.105, I 0.05, H -0.237, K -0.519, Y -0.663, C -0.151, M -0.262, N -0.794, A -0.342, P -0.923, Q -0.928, W -0.411, S -0.576, R -0.944, G -0.802
Y78: S 0.148, W -0.22, D 0.228, K 0.103, C 0.029, H -0.119, A 0.181, M 0.163, Q 0.2, E 0.247, L 0.12, I 0.034, G 0.203, T 0.173, P -0.033, F -0.087, N 0.305, V 0.071
L73: K -0.292, D -0.156, N -0.201, I -0.034, R -0.039, P -0.634, M 0.015, Q -0.144, A 0.023, V -0.028, S -0.063, G -0.183, E -0.293, C 0.075, W -0.028, H -0.061, T -0.016, Y -0.054
L79: D -0.106, P -0.19, T 0.021, Q -0.007, F -0.215, N -0.259, R -0.002, G -0.195, M 0.179, H -0.076, V 0.046, E -0.054, C 0.114, K -0.014, S -0.141, Y -0.454, I 0.061
R80: C 0.178, N 0.193, F 0.003, K -0.004, Q 0.071, V -0.046, A 0.021, M 0.038, E -0.166, P -0.01, H 0.068, Y -0.466, G -0.152, S -0.109
E81: L 0.076, C -0.05, I -0.152, P -0.107, Q 0.016, N 0.557, H 0.108, F -0.339, V -0.155, G 0.138, A -0.03, D 0.102, W -0.32, M -0.301, Y -0.058
H75: D 0.119, Q 0.038, I -0.215, W -1, N 0.099, A -0.01, T -0.646, Y -0.113, M -1.02, G -0.156, P -0.561, E -0.163, V -0.62, F -0.511, R 0.121, L -0.316
S74: H 0.246, P -0.352, V -0.138, I -0.342, F -0.379, G 0.026, L -0.217, Q -0.073, D -0.064, W -0.603, M -0.124, N 0.032, Y -0.018, T 0.078, C -0.115, R 0.006

— the Human Domainome abundance scans (Beltran et al. 2025)
